Assay results from patent CN108546297A (ACAD OF MILITARY SCIENCES PLA CHINA ACAD OF MILITARY …, dated 2018).

Key:
[1] = target: T1, CD28/Fc (UniProt P10747 19-152); assay: indirect ELISA, antigen coated at 1 μg/mL, goat anti-human F(ab')2-HRP
T1 construct: not shown: Fc part of the fusion

[2] = target: T2, CTLA4/Fc (UniProt P16410 36-162, limits assumed); assay: as above
T2 construct: not shown: Fc part of the fusion
T2 sequence (looked up): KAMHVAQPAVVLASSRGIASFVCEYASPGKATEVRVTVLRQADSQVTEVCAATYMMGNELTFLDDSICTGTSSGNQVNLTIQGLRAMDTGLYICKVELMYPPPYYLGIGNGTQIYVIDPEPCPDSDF

[3] = target: T3, BTLA/Fc (UniProt Q7Z6A9 31-157, limits assumed); assay: as above
T3 construct: not shown: Fc part of the fusion
T3 sequence (looked up): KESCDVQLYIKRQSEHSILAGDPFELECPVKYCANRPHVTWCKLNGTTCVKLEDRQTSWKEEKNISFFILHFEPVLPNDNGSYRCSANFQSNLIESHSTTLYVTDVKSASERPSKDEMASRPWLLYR

[4] = target: T4, ICOS/Fc (UniProt Q9Y6W8 21-141); assay: as above
T4 construct: not shown: Fc part of the fusion
T4 sequence (looked up): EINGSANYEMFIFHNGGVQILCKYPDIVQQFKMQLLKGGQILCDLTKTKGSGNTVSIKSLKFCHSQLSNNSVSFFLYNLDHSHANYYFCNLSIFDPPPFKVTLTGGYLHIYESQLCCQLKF

[5] = target: T5, PD-1/Fc (UniProt Q15116 25-167); assay: Biacore SPR: antibody captured by anti-human Fab on a CM5 chip, PD-1/Fc as analyte
T5 construct: also called PD-1/Fc抗原; PD-1/Fc融合蛋白; not shown: Fc part of the fusion
T5 sequence (Q15116 25-167 limits assumed): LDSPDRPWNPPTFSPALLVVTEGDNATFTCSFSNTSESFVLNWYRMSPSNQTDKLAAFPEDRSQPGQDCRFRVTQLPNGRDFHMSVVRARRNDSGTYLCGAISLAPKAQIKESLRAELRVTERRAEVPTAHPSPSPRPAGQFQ

T1 sequence (P10747 19-152 limits assumed): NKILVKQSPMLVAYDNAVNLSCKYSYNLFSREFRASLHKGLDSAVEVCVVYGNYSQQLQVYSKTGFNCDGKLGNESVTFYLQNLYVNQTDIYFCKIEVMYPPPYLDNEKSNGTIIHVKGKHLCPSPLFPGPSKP

binding result [1]: no binding (tested: antibody at 1 μg/mL) | binding result [2]: no binding (tested: antibody at 1 μg/mL) | binding result [3]: no binding (tested: antibody at 1 μg/mL) | binding result [4]: no binding (tested: antibody at 1 μg/mL) | Kd [5]: 0.328 nM | koff [5]: 9.6e-05 s⁻¹ | kon [5]: 292000 M⁻¹ s⁻¹
B1: 本发明制备的抗PD-1抗体 (anti-PD-1 monoclonal antibody of the invention) (antibody, V domains shown)
VH: QVQLVESGGGVVQPGRSLRLNCKASGITFSNSGMHWVRQAPGKGLEWVAVIWYDGSKLYYADSVKGRFTISRDNSKNTLFLQMNSLRAEDTAVYYCATDSDYWGQGTLVTVSS
VL: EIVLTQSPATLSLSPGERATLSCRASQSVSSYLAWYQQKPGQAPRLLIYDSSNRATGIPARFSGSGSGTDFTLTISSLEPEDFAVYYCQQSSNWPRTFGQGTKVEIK
notes: Variable regions cloned into the full-length antibody vector PRT/KIgG1 (IgG1 heavy constant region CH1-CH2-CH3, kappa light constant region); also called 本发明制备抗体
